Test results published in PMC4813160.

Molecular target: Isocitrate dehydrogenase (IDH) from B. longum (BlIDH) (Bifidobacterium longum subsp. infantis ATCC 15697)
Experiment: SEC; gel filtration on a 10/300 Superdex 200 column, 50 mM NaH2PO4 and 150 mM NaCl at pH 7.2; standards ovalbumin, conalbumin, aldolase, ferritin, thyroglobulin; single symmetrical peak, native mass 83 kDa against about 45 kDa for the subunit

In the case of “Isocitrate dehydrogenase (IDH) from B. longum (BlIDH) (enzyme)”, the stoichiometry N is reported as 2.
